Experimental data published in article PMC2756588.

What was measured:
Test in all cases: SPOT array
[1] = target: T1, Boi1, P38041; conditions: median of control spots 1162
T1 sequence (P38041 1-86, looked up): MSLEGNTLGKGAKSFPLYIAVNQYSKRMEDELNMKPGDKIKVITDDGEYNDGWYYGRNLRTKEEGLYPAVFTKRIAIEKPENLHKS

[2] = target: T2, Boi2, P39969; conditions: median of control spots 1161
T2 sequence (P39969 32-116, looked up): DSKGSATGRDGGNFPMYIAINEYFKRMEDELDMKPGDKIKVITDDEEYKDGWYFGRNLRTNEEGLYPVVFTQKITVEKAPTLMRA

[3] = target: T3, Bzz1-2, P38822; conditions: median of control spots 4538
T3 sequence (P38822 568-633, looked up): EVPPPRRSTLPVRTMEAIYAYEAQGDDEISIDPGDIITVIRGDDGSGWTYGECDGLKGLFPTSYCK

[4] = target: Sho1, P40073; conditions: median of control spots 1148
[5] = target: Bem1-1, P29366; conditions: median of control spots 4282
[6] = target: T4, Lsb1, P53281; conditions: median of control spots 388
T4 sequence (P53281 45-122, looked up): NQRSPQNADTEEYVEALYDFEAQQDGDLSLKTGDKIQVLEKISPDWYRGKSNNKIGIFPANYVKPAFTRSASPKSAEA

[7] = target: T5, Sla1-3, P32790; conditions: median of control spots 5475
T5 sequence (P32790 344-424, looked up): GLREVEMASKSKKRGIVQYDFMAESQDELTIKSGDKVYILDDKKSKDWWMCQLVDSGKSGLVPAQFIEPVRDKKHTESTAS

[8] = target: Rvs167, P39743; conditions: median of control spots 2707
[9] = target: T6, Hse1, P38753; conditions: median of control spots 1727
T6 sequence (P38753 208-285, looked up): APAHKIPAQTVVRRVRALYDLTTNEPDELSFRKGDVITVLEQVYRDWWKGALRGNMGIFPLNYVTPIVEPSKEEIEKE

[10] = target: T7, Sla1-2, P32790; conditions: median of control spots 712
T7 sequence (P32790 60-140, looked up): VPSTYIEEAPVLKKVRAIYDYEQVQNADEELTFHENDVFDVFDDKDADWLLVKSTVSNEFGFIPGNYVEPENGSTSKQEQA

[11] = target: Myo3, P36006; conditions: median of control spots 468
[12] = target: T8, Fus1, P11710; conditions: median of control spots 1200
T8 sequence (P11710 432-512, looked up): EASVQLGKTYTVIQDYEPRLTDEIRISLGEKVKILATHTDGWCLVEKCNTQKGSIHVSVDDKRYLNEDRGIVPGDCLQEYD

[13] = target: GST; conditions: median of control spots 978
[14] = target: Bem1-2, P29366; conditions: median of control spots 4347
[15] = target: T9, Bbc1, P47068; conditions: median of control spots 796
T9 sequence (P47068 1-78, looked up): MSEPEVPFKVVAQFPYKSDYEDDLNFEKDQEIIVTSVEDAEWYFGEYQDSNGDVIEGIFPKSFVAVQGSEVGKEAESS

[16] = target: T10, Hof1, Q05080; conditions: median of control spots 4086
T10 sequence (Q05080 590-669, looked up): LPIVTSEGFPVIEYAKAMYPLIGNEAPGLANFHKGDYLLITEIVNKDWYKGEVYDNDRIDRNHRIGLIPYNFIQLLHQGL

[17] = target: T11, Abp1, P15891; conditions: median of control spots 935
T11 sequence (P15891 535-592, looked up): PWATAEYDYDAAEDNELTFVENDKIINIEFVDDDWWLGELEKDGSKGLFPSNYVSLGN

[18] = target: T12, Lsb3, P43603; conditions: median of control spots 406
T12 sequence (P43603 385-451, looked up): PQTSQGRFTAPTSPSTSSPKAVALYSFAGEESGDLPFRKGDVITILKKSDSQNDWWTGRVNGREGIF

[19] = target: T13, Cyk3, Q07533; conditions: median of control spots 1451
T13 sequence (Q07533 1-83, looked up): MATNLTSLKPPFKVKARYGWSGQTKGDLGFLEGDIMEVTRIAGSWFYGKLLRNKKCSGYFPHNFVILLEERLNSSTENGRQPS

[20] = target: T14, Nbp2, Q12163; conditions: median of control spots 357
T14 sequence (Q12163 103-180, looked up): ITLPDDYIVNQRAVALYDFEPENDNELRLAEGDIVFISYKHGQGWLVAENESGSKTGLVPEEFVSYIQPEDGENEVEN

[21] = target: T15, Cdc25, P04821; conditions: median of control spots 969
T15 sequence (P04821 50-136, looked up): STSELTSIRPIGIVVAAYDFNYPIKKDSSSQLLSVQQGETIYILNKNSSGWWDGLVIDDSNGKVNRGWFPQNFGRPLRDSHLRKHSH

[22] = target: T16, Bzz1-1, P38822; conditions: median of control spots 4446
T16 sequence (P38822 478-572, looked up): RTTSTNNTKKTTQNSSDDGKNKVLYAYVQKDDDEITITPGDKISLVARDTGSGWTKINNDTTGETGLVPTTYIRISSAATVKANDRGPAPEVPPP

[23] = target: T17, Pin3, Q06449; conditions: median of control spots 2171
T17 sequence (Q06449 53-122, looked up): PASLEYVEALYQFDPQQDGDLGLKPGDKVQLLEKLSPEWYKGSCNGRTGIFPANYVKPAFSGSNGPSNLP

[24] = target: T18, Lsb4, P32793; conditions: median of control spots 397
T18 sequence (P32793 402-468, looked up): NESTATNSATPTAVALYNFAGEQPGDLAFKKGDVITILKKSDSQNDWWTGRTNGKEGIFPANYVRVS

[25] = target: T19, Myo5, Q04439; conditions: median of control spots 471
T19 sequence (Q04439 1072-1160, looked up): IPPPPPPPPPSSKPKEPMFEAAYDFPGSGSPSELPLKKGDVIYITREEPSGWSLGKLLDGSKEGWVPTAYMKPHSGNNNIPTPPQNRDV

[26] = target: T20, Pex13, P80667; conditions: median of control spots 1341
T20 sequence (P80667 295-386, looked up): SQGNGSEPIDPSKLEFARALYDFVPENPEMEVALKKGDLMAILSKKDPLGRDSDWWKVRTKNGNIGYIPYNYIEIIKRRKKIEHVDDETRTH

[27] = target: T21, Bud14, P27637; conditions: median of control spots 956
T21 sequence (P27637 247-328, looked up): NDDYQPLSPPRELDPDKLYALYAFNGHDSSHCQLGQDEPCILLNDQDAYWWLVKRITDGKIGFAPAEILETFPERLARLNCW

Sequence of Bem1-2, P29366 (P29366 139-227): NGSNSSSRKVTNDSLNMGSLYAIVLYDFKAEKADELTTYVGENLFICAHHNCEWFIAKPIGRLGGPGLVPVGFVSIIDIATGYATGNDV
Sequence of Bem1-1, P29366 (P29366 55-141): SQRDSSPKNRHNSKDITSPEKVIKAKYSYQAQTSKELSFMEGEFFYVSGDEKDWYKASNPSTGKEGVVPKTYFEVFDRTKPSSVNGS
Sequence of Sho1, P40073 (P40073 287-367): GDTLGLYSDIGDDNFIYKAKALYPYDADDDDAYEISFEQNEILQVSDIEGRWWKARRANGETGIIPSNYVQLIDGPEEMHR
Sequence of Rvs167, P39743 (P39743 419-482): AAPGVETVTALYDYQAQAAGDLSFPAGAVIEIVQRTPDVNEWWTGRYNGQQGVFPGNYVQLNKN

For ITHRLRISIPGITGR, the SPOT intensity [1] was 1, the SPOT intensity [2] was 1 and the SPOT intensity [3] was 0. The SPOT intensity [4] was 191, the SPOT intensity [5] was 0 and the SPOT intensity [6] was 231. The SPOT intensity [7] was 2, the SPOT intensity [8] was 0 and the SPOT intensity [9] was 11. The SPOT intensity [10] was 4, the SPOT intensity [11] was 37 and the SPOT intensity [12] was 39. For the same binder, the SPOT intensity [13] was 0, the SPOT intensity [14] was 6 and the SPOT intensity [15] was 24. For the same binder, the SPOT intensity [16] was 1, the SPOT intensity [17] was 118 and the SPOT intensity [18] was 9. For the same binder, the SPOT intensity [19] was 0, the SPOT intensity [20] was 32 and the SPOT intensity [21] was 29. For the same binder, the SPOT intensity [22] was 1, the SPOT intensity [23] was 69 and the SPOT intensity [24] was 5. It also gave an SPOT intensity [25] of 4, an SPOT intensity [26] of 32 and an SPOT intensity [27] of 8.

In the case of NNFYRPLLRSVLVLL, the SPOT intensity [1] is reported as 6, the SPOT intensity [2] is reported as 2 and the SPOT intensity [3] is reported as 2. It also gave an SPOT intensity [4] of 17, an SPOT intensity [5] of 0 and an SPOT intensity [6] of 0. The SPOT intensity [7] was 4, the SPOT intensity [8] was 2 and the SPOT intensity [9] was 0. The SPOT intensity [10] was 0, the SPOT intensity [11] was 0 and the SPOT intensity [12] was 13. For the same binder, the SPOT intensity [13] was 1, the SPOT intensity [14] was 3 and the SPOT intensity [15] was 37. The SPOT intensity [16] was 0, the SPOT intensity [17] was 14 and the SPOT intensity [18] was 1. It also gave an SPOT intensity [19] of 9, an SPOT intensity [20] of 3 and an SPOT intensity [21] of 22. It also gave an SPOT intensity [22] of 3, an SPOT intensity [23] of 5 and an SPOT intensity [24] of 0. It also gave an SPOT intensity [25] of 0, an SPOT intensity [26] of 4 and an SPOT intensity [27] of 14.

Work on VLRFLGFPLPIFEKG yielded an SPOT intensity [1] of 1, an SPOT intensity [2] of 1 and an SPOT intensity [3] of 0. It also gave an SPOT intensity [4] of 43, an SPOT intensity [5] of 0 and an SPOT intensity [6] of 0. The SPOT intensity [7] was 0, the SPOT intensity [8] was 0 and the SPOT intensity [9] was 6. It also gave an SPOT intensity [10] of 0, an SPOT intensity [11] of 1 and an SPOT intensity [12] of 78. It also gave an SPOT intensity [13] of 0, an SPOT intensity [14] of 2 and an SPOT intensity [15] of 30. The SPOT intensity [16] was 4, the SPOT intensity [17] was 19 and the SPOT intensity [18] was 0. The SPOT intensity [19] was 7, the SPOT intensity [20] was 41 and the SPOT intensity [21] was 28. For the same binder, the SPOT intensity [22] was 0, the SPOT intensity [23] was 3 and the SPOT intensity [24] was 0. It also gave an SPOT intensity [25] of 0, an SPOT intensity [26] of 4 and an SPOT intensity [27] of 17.

With LLLLFVPDSPYDPAI the SPOT intensity [1] was 1, the SPOT intensity [2] was 0 and the SPOT intensity [3] was 0. It also gave an SPOT intensity [4] of 0, an SPOT intensity [5] of 0 and an SPOT intensity [6] of 0. The SPOT intensity [7] was 2, the SPOT intensity [8] was 0 and the SPOT intensity [9] was 0. The SPOT intensity [10] was 0, the SPOT intensity [11] was 0 and the SPOT intensity [12] was 1. It also gave an SPOT intensity [13] of 1, an SPOT intensity [14] of 0 and an SPOT intensity [15] of 0. For the same binder, the SPOT intensity [16] was 0, the SPOT intensity [17] was 0 and the SPOT intensity [18] was 0. For the same binder, the SPOT intensity [19] was 0, the SPOT intensity [20] was 1 and the SPOT intensity [21] was 0. It also gave an SPOT intensity [22] of 0, an SPOT intensity [23] of 0 and an SPOT intensity [24] of 0. The SPOT intensity [25] was 0, the SPOT intensity [26] was 0 and the SPOT intensity [27] was 3.
